Results from the emibetuzumab library of Makowski et al. (2022).

B1: VH:VL chains; a variant is named by its letters at X, in order (parent)
chain 1: QVQLVQSGAEVKKPGASVKVSCKASGYTFTDYXMHWVRQAPGQGLEWMGXVNPNXXXTTYNQKFEGRVTMTTDTSTSTAYMELRSLRSDDTAVYYCARXNXLDXWGQGTTVTVSS
chain 2: DIQMTQSPSSLSASVGDRVTITCSVSSSVSSIYLHWYQQKPGKAPKLLIYSTSNLASGVPSRFSGSGSGTDFTLTISSLQPEDFATYYCQVYSGYPLTFGGGTKVEIK

Variants of: B1
Test: yeast display scFab, FACS + sequencing
Procedure, shortened: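 Non-specific binding was called from deep sequencing of sorted yeast cells displaying a heavy-chain CDR mutant scFab library. Cells labelled with anti-Myc and biotinylated ovalbumin (260 μg/mL in PBSB, 3 h, room temperature) or soluble membrane proteins (130 μg/mL, 20 min on ice) were FACS-sorted, collecting the top 25% and bottom 10% of binders from two replicates. A sequence was positive when present in ≥3 of 4 pooled positive samples and absent from all negatives, and negative under the converse rule.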
In the case of YATGDDGV, the non-specific binding call is reported as “no binding”. For DARRGSGD, the non-specific binding call was “no binding”. For VATGDDVA, the non-specific binding call was “no binding”. In the case of VATGDDVD, the non-specific binding call is reported as “no binding”. In the case of VATGDDVY, the non-specific binding call is reported as “no binding”. For YATKGAWA, the non-specific binding call was “binds”. For VATGDFGV, the non-specific binding call was “no binding”. With DATGGALD the non-specific binding call was “no binding”. With FATKGAWV the non-specific binding call was “binds”. For DATGGSLD, the non-specific binding call was “no binding”. With FATGGSGD the non-specific binding call was “binds”. For YARRGSLD, the non-specific binding call was “binds”. For DATGGAGD, the non-specific binding call was “no binding”. In the case of FATRASGD, the non-specific binding call is reported as “binds”. For YATAADAD, the non-specific binding call was “no binding”. In the case of DATGGASD, the non-specific binding call is reported as “no binding”. For DARGGDAA, the non-specific binding call was “no binding”. For DATGGDVV, the non-specific binding call was “no binding”. In the case of DATGGDVF, the non-specific binding call is reported as “no binding”. With DATGGDVD the non-specific binding call was “no binding”. For DATGGDVA, the non-specific binding call was “no binding”. For DATGGDVY, the non-specific binding call was “no binding”. With DATEDDSA the non-specific binding call was “no binding”. With DARGAYLV the non-specific binding call was “no binding”. For DARGGSAD, the non-specific binding call was “no binding”. For AATRNVGV, the non-specific binding call was “binds”. For DARGGDWV, the non-specific binding call was “no binding”. With SARTDFWF the non-specific binding call was “binds”. In the case of DATGGFGV, the non-specific binding call is reported as “no binding”. With FARKSDSS the non-specific binding call was “no binding”. In the case of YATKGFGD, the non-specific binding call is reported as “binds”. For DATGGDWA, the non-specific binding call was “no binding”. With FARKSFGS the non-specific binding call was “binds”. In the case of YARGGAGA, the non-specific binding call is reported as “no binding”. With VATGDDGV the non-specific binding call was “no binding”. For VARKGVGV, the non-specific binding call was “binds”. In the case of DATGGYAV, the non-specific binding call is reported as “no binding”. With DATGGDAD the non-specific binding call was “no binding”. In the case of VATGGYAV, the non-specific binding call is reported as “no binding”. For FARKSYGA, the non-specific binding call was “binds”. With DARGGAVV the non-specific binding call was “no binding”. With DARGGAVY the non-specific binding call was “no binding”. In the case of DARGGSSS, the non-specific binding call is reported as “no binding”. With DARGGSSY the non-specific binding call was “no binding”. In the case of DARGGSSV, the non-specific binding call is reported as “no binding”. In the case of DARGGSSA, the non-specific binding call is reported as “no binding”. For FARGGYVA, the non-specific binding call was “binds”. With DATGGAVA the non-specific binding call was “no binding”. In the case of SARTDFWF chain 1 K19N, the non-specific binding call is reported as “binds”. For DARGGAAV, the non-specific binding call was “no binding”. For YATGDDVA, the non-specific binding call was “no binding”. With YATRGAAA the non-specific binding call was “binds”. In the case of YARRAAVS, the non-specific binding call is reported as “binds”. For VATKGFVV, the non-specific binding call was “no binding”. With YATAADWD the non-specific binding call was “no binding”. With DARGGDGS the non-specific binding call was “no binding”. In the case of DATRSSWD, the non-specific binding call is reported as “no binding”. With VATGDSLV the non-specific binding call was “no binding”. In the case of FARGGDAV, the non-specific binding call is reported as “no binding”. With YATGGYAV the non-specific binding call was “no binding”. With FARGGSAD the non-specific binding call was “no binding”. For DATGNVWS, the non-specific binding call was “binds”. In the case of AATTDSGD, the non-specific binding call is reported as “no binding”. For AATTDSGV, the non-specific binding call was “no binding”. For FATEGASA, the non-specific binding call was “no binding”. For DARRGAGV, the non-specific binding call was “no binding”. With SATKTVVV the non-specific binding call was “binds”. With YARGGDLD the non-specific binding call was “no binding”. In the case of VARGGSVD, the non-specific binding call is reported as “no binding”. In the case of YATEDDWV, the non-specific binding call is reported as “no binding”. For YATEDSGF, the non-specific binding call was “no binding”. For AATGSAWA, the non-specific binding call was “no binding”. For SARGGYWY, the non-specific binding call was “binds”. For DATGGDGY, the non-specific binding call was “no binding”. For DATGGDGA, the non-specific binding call was “no binding”. In the case of DATGGDGS, the non-specific binding call is reported as “no binding”. For DATGGDGV, the non-specific binding call was “no binding”. For AATTDSSS, the non-specific binding call was “no binding”. For DARGGFGV, the non-specific binding call was “no binding”. With VATRGYLV the non-specific binding call was “binds”. For YATEAFSD, the non-specific binding call was “binds”. For AATTDAGD, the non-specific binding call was “no binding”. In the case of SARKGDVA, the non-specific binding call is reported as “no binding”. For DARGGSLS, the non-specific binding call was “no binding”. In the case of DARGGSLD, the non-specific binding call is reported as “no binding”. With VATGSSGA the non-specific binding call was “no binding”. With YARRGDGA the non-specific binding call was “binds”. For AATTDDAV, the non-specific binding call was “no binding”. In the case of VATRAVGA, the non-specific binding call is reported as “binds”. In the case of FATKGFGD, the non-specific binding call is reported as “binds”. With DATGGSVD the non-specific binding call was “no binding”. In the case of FARKGDGV, the non-specific binding call is reported as “no binding”. In the case of DATGGAAA, the non-specific binding call is reported as “no binding”. For YARRGSGV, the non-specific binding call was “binds”. For FARKGSGA, the non-specific binding call was “binds”. For DARGGDVY, the non-specific binding call was “no binding”. With VATGDDWV the non-specific binding call was “no binding”. For DATRGAGY, the non-specific binding call was “no binding”. For DATRGAGD, the non-specific binding call was “no binding”. For VATRGFWD, the non-specific binding call was “no binding”. For DATGGSSA, the non-specific binding call was “no binding”. In the case of DATGGSSV, the non-specific binding call is reported as “no binding”. In the case of DATGGSSS, the non-specific binding call is reported as “no binding”. In the case of DATGGSSY, the non-specific binding call is reported as “no binding”. For YARRDVGA, the non-specific binding call was “binds”. With YARGTAVD the non-specific binding call was “binds”. For FATGSDGA, the non-specific binding call was “no binding”. For SARRGDWA, the non-specific binding call was “binds”. With YATEGVWV the non-specific binding call was “binds”. In the case of DATGGSGA, the non-specific binding call is reported as “no binding”. For DATGGSGD, the non-specific binding call was “no binding”. In the case of DARGGAGA, the non-specific binding call is reported as “no binding”. For YARTGFGA, the non-specific binding call was “binds”.
